According to the supplement of paper PMC9170038:

Experiments:
[1] = system: MS2 coat protein; experiment: apparent KD of MS2 coat protein; designed switch direction (-1 OFF switch, 1 ON switch): -1; higher = weaker reporter binding; settings: Eterna round: R98
Protocol: (§1)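 RNA-MaP: designed FMN/MS2 RNA switches (84 nt design region) are transcribed on-chip within common flanks and titrated with SNAP-549-labelled MS2 coat protein (about 1-3000 nM) in 100 mM Tris pH 7.5, 80 mM KCl, 4 mM MgCl2, without or with 200 uM FMN. Median apparent KD per design; activation ratio = KD,OFF / KD,ON.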

[2] = system: MS2 coat protein; experiment: apparent KD of MS2 coat protein; higher = weaker reporter binding; settings: Eterna round: R101
Protocol: as §1

Sequence | apparent KD of MS2 coat protein ([1]; input ligand: FMN 200 uM) [nM] | apparent KD of MS2 coat protein ([1]; input ligand: none) [nM] | apparent KD of MS2 coat protein ([2]; input ligand: FMN 200 uM) [nM] | apparent KD of MS2 coat protein ([2]; input ligand: none) [nM]
CACGACAGGAAACGGAGCGGCCAACAUGAGGAUCACCCAUGUGAGGAUAUGCCUACUAAAAGUAGGCAGAAGGCACAGAAGGCA [Ex NG2 #73] | 136 | 58.1 | – | –
UGUGUUAUCGGAGGAUAUCGAUAUCAAACAUGAGGAUCACCCAUGUUGAGGAUCACCCAUGUCCACGAGAAGGCCGGCGUACUG [My 7th design] (puzzle (switch architecture): Same State NG 2) | – | – | 12.5 | 12.9
GGUUAUAUAACAUGAGGAUCACCCAUGUGAGUGGUCCGAAGCUAGGAUAUCCACACGAGAAGUGUGGAGAAGGAGCAUUCAUUA [AK-NGROCr2-ExNG3-7] | 159 | 273 | – | –
AGUACUCCAGAAGGAUAUGCGUCGGUGGAUGUCCUUAGGCGGACGGUCACAUGAGGAUCACCCAUGUAGAAGGUCUGGGAGCCA [Leesla] | 87.3 | 19.2 | – | –
CAAUUGGCACAGAAGGGUGACAUGAGGAUCACCCAUGUAGCGUGGCUCUCAGGAGGAGCCACGCCACAGGAUAUGUGCCGGCAC [Anrilaage] (puzzle (switch architecture): Inverted Same State NG 2) | – | – | 102 | 177
GGUCGACCUCAAGGAUAUGGACUGCAAAGCAGUCCAGAAGGUGAGGAUCACCCACCUACGGUCAGGAAACUGACCGAUCGACCA [#SharedSequence - ExNG1-2] (puzzle (switch architecture): Exclusion NG 1) | – | – | 117 | 19.8
UUGCAUUGAUGAGGAUAUGGACAUGAGGAUCACCCAUGUUGGGCGGGUAUGAUUUCCGAGGGAGGCUAGAAGGCGUAUUAUGUU [Exclusion NG 2] | 60.8 | 45.5 | – | –
UAAAUAGAUCCUAGAGGAUCACCCUAGGAUAUCACCGUCGAGGUGCCAUAAUGGCACCUCGACGGUGAGAAGGAGGGAAAUAAA [#SharedSequence - SLExNG3: 2] (puzzle (switch architecture): Small Loop Exclusion NG 3) | – | – | 77.8 | 51.2
AGGUGGGUGCUGCAGUGAUAUACAUGAGGAUCACCCAUGUCCGAGGAUAUGCGGCAAACACGCCAGCAGAAGGCGGAGAAAAUG [Soorisrila] | 154 | 125 | – | –
GCGUAAAAGAUCCUAUUUAUCUACAUGAGGAUCACCCAUGUGCAGGAUAUGCUAUAUUUAAUAAAGCAGAAGGGCAAUAACCGC [JR_ExcNG3_Sub009] | 281 | 67.6 | – | –
GUAGCUAUCGGAGGAUAUUCAUACCGGAAACGGACAUGAGGAUCACCCAUGUGGCGAAAGCCAUGGGAGAAGGCCGAUAGCUAC [jl-sng2-3.01 #MUTATE_MAP] (puzzle (switch architecture): Same State NG 2) | – | – | 52.2 | 856
AAAUAAAUUCAAGGAUAUGACUCCGAAACGGAGUCAGAAGGUGAGGAUCACCCACCUAUGAUCAGACCUCAGGAAACUGAGGUC [#SharedSequence ExNG1 - 39] (puzzle (switch architecture): Exclusion NG 1) | – | – | 6.56 | 6.19
AGACCUGCUCAGAAGGUGGGAACGAGGCUGGAAACAGCCUCGAAAUUAAAUCCUUGAGGAUCACCCAAGGAUAUGAGCAGGUCA [#SharedSequence - IExNG2: 12] (puzzle (switch architecture): Inverted Exclusion NG 2) | – | – | 84.3 | 10.3
AAUAAACAAUAAAAGACUGGAGCAAACUUCUGAGGAUCACCCAGAAGGCGUCACCUAAUAGGUGACGAGGAUAUGGAGCUCCAG [#SharedSequence IExNG# - 2] (puzzle (switch architecture): Inverted Exclusion NG 3) | – | – | 6.36 | 5.76
AAAGUCGAGAAGAUAAUAAUGAAUACAUGAGGAUCACCCAUGUAGGAUAUGCAGUGGAAUACACUGCAGAAGGACAUACUCGAC [Exclusion NG 3/16-B1] | 16.4 | 13.6 | – | –
GCUGCAAAGUAAGGAUAUGCCUAGGAAACCUAGGCAGAAGGUACAUGAGGAUCACCCAUGUUAACUGAAACAGAAUAAAGCAGC [Thrunch 6 - Jieux - Exclusion NG 1] | 23.2 | 13.5 | – | –
CUCCCUCCCUCCCUCCCUCCCUCCGAGGAUAUCCCAAACUCCCUCCCUCCCUCCCUCCCAAAUUCCCAGAAGGCCCUUUUUCCC [2nd design] (puzzle (switch architecture): Small Loop Same State NG 3) | – | – | 4.61 | 46.4
